Source: the supplement of paper PMC10567573

B1: YPEL3 (parent)
chain: SKPKTFQAYLDDCHRRYSCAHCRA
B2: SNX3 (parent)
chain: FLRQLPFRGDDGIFDDNFIEERKQ

Variants of: B1
Test: protein stability index of a GFP-peptide fusion (GPS, HEK-293T) (PSI 1-6); higher = more stable
Settings: c terminus: a fixed tail appended
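Further: lentivirally expressed fusions sorted by FACS into six bins by GFP to DsRed ratio, PSI derived from sequencing read proportions per bin multiplied by bin number.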

Protein stability index of substitutions, site by site:
C13: F 2.1, L 2.12, H 1.75, D 1.99, M 2.79, R 2.19, P 1.68, G 2.07, Y 2.44, Q 2.48, E 1.78, V 2.54, T 2.01, K 2.69, S 2.25, A 1.8, N 2.27, W 1.71, I 1.94
S1: E 1.52, R 1.92, H 2.07, C 2.29, W 1.66, F 1.67, I 2.81, D 2.21, A 2.11, M 2, Q 2.08, K 1.98, G 2.07, V 1.38, Y 1.99, L 3.27, N 2.04, P 2.67
P3: S 1.82, I 2.19, E 2.31, W 1.8, V 2, K 2.29, R 2.05, M 3.01, N 2.26, G 2.13, Y 1.72, F 3.23, D 2.11, T 1.92, L 2.13, H 1.54, A 1.66, Q 1.97, C 2.6
Y9: C 2.33, Q 2.45, N 2.17, S 1.4, V 2.41, W 1.93, K 1.93, G 2.85, I 2, F 2.67, H 1.88, P 3.08, M 1.89, A 2.19, L 1.96, R 1.94, T 1.52, E 3, D 2.38
D12: F 1.7, K 2.9, Q 2.01, P 2.57, I 2.22, T 2.35, Y 2.28, E 2.36, R 2.4, C 2.74, G 2.64, S 2, L 2.34, A 2.19, W 1.67, V 1.96, H 2.35, N 2.12, M 2.69
K4: M 2.28, S 2.5, F 1.72, T 1.74, Q 1.8, H 2.59, P 1.9, C 1.86, A 2.47, N 1.87, E 2.09, V 2.57, I 1.6, R 1.86, L 2.42, D 1.86, G 2.71, W 1.59, Y 2.04
D11: W 1.5, F 3.03, P 2.54, M 2.47, S 1.9, G 1.97, R 1.9, Q 2.21, H 2.37, N 2.6, V 1.75, Y 1.72, K 2.83, I 2.92, E 2.59, T 2.14, C 3.36, L 2.11, A 1.89
Q7: Y 1.85, P 2.8, N 2.04, F 3.06, C 1.96, I 1.4, M 1.8, V 2.18, G 2.22, K 2.65, R 2.02, T 1.93, A 2.39, L 1.76, S 1.89, E 2.16, W 1.73, H 2.2, D 2.68
F6: R 3.21, D 3.54, I 2.17, H 2.71, W 2.44, A 2.95, E 3.4, P 2.96, Q 3.21, K 3.23, T 3.23, V 2.81, Y 2.2, N 3.15, G 3.57, C 2.84, L 2.27, M 2.94, S 3.3
K2: M 1.7, A 2.18, N 2.34, E 1.63, P 1.95, I 1.63, G 2.34, H 2, L 1.85, S 1.8, V 2.22, F 1.88, C 2.38, Q 2.31, R 1.89, W 2.58, T 2.19, D 2.89, Y 1.85
H14: A 2.03, W 3.12, I 2.05, Y 1.56, S 2.06, P 2.05, R 1.73, F 1.07, Q 2.23, K 2.78, C 2.28, D 1.67, N 2.19, T 1.8, G 3.08, V 2.15, L 1.82, M 2.34, E 1.56
R16: M 1.88, C 2.4, I 1.55, D 2.45, E 3.04, T 2.46, L 2.33, S 1.59, P 1.94, Q 2.5, V 2.34, A 1.76, Y 1.83, G 1.33, N 1.45, H 2.3, F 1.76, K 1.73
R15: T 2.48, Y 1.56, C 2.72, N 2.79, P 1.82, S 1.61, I 2.25, K 2.15, L 2.01, H 2.72, E 3.59, Q 1.65, F 2.07, W 2.2, G 1.88, M 1.68, A 2.1, D 2.67, V 1.57
Y17: C 3.26, A 1.99
L10: C 3.6, K 2.94, F 1.99, A 2.54, M 1.75, H 3.32, T 2.14, S 2.8, V 1.57, G 2.79, W 2.05, N 2.62, Y 1.97, R 2.62, D 2.53, E 3.4, I 2.41, P 2.79, Q 2.48
A8: L 2.4, R 1.88, Y 2.02, E 1.92, H 2.51, S 1.82, F 1.78, Q 2.5, N 2.49, K 2.31, I 1.81, C 2.32, P 2.62, T 2.1, D 1.54, W 2.09, G 1.91, M 1.66, V 2.23
T5: G 2.11, V 2.05, S 1.77, K 2.25, D 2.94, E 3.37, H 2.57, R 2.85, A 2.46, C 2.33, P 2.43, I 2.75, W 1.99, N 2.53, M 2.56, L 2.37, Q 2.55, Y 1.97, F 1.84

Variants of: B2
Test: as above
Settings: c terminus: a fixed tail appended

Protein stability index of substitutions, site by site:
N17: F 2.58, R 2.61
F14: Q 3.67, G 4.33, V 3.81
Q4: P 1.95, M 3.22, F 2.44, T 3.08
K23: H 3.38
D15: R 2.71, C 2.99
R22: H 3.19
L2: D 4.72
R8: K 3.69, G 3.79
E20: A 3.57
G12: K 4.03, I 2.39
P6: S 3.26
D11: E 2.9
F1: W 3.03, Y 4.18
D10: N 2.64
E21: F 2.39, R 3.19
L5: E 4.62, A 3.1
G9: K 3.39, C 2.79
